The experiment addresses T1, TβRII-GFP, P37173.
T1 chain: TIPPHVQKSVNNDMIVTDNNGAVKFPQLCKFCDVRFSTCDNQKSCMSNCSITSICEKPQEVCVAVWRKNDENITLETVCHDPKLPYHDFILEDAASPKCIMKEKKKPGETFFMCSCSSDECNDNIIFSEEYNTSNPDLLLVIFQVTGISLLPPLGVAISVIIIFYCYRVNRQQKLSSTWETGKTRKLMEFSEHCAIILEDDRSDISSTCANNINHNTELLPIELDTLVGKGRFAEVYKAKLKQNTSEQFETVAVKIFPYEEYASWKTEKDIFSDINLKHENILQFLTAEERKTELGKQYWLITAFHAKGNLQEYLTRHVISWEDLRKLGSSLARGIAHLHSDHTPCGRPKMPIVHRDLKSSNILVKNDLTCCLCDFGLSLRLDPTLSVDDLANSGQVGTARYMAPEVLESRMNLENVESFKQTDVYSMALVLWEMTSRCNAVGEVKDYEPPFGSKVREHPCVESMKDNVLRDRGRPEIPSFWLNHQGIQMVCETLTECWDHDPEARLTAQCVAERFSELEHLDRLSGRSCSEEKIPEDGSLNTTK
Briefly: single-molecule photobleaching step counting (TIRFM); TβRII-GFP on the membrane of fixed HeLa cells 4 h after transfection; after TGF-β1 10 ng/mL for 15 min at 37 °C; room temperature. The conditions noted are these: remark: other sources report otherwise.

B1: TβRII-GFP, P37173 23-567 (receptor)
chain: T1 chain
In turn, B1 registered a percent of spots bleaching in one step (monomers), after TGF-β1 of 67.7%; a percent of spots bleaching in three steps, after TGF-β1 of 0.6%; a percent of spots bleaching in two steps (dimers), after TGF-β1 of 31.6%.
